Results from PMC8056151.

Target: AG-tagged DDB1 (DNA damage-binding protein 1) (human) (UniProt Q16531)
Experiment: Fluoppi

Sequence of UniProt Q16531 (Q16531 whole entry): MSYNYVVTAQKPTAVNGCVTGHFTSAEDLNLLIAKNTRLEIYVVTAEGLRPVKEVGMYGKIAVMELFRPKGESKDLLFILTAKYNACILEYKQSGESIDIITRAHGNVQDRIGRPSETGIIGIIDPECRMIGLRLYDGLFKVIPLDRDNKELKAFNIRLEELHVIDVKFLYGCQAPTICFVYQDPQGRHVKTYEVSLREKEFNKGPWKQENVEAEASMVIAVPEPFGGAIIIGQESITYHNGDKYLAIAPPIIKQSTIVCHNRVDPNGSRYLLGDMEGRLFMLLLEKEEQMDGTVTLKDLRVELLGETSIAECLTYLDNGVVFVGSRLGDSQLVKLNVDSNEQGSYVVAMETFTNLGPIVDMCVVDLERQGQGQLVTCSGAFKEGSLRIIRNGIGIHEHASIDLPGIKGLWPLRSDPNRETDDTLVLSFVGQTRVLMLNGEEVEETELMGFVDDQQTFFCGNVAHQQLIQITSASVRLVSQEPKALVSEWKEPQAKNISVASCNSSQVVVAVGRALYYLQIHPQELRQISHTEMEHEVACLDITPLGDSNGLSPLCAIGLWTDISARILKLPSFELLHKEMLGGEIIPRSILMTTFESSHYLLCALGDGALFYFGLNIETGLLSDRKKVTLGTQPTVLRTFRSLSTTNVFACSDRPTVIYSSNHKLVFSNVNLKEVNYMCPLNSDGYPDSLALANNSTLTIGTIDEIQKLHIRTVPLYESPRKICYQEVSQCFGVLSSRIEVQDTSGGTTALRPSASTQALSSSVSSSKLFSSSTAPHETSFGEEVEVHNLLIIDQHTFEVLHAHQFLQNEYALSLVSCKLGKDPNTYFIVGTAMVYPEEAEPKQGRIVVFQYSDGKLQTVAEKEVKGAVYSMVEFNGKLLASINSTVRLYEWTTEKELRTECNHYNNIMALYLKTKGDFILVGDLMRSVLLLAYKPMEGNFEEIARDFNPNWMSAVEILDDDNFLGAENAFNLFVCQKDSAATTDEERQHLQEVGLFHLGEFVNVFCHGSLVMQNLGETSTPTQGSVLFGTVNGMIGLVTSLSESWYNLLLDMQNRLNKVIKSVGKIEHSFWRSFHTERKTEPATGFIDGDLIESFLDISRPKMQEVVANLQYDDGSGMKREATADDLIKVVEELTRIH

Ash-tagged hepatitis B virus X protein (full-length HBx, wild type) (natural protein)
percent of fluorescent puncta left with NTZ: 50%
